Test results taken from IntAct's records for PubMed 19534813.

B1: Twist-related protein 1 (Homo sapiens), Q15672 (parent)
chain: MMQDVSSSPVSPADDSLSNSEEEPDRQQPPSGKRGGRKRRSSRRSAGGGAGPGGAAGGGVGGGDEPGSPAQGKRGKKSAGCGGGGGAGGGGGSSSGGGSPQSYEELQTQRVMANVRERQRTQSLNEAFAALRKIIPTLPSDKLSKIQTLKLAARYIDFLYQVLQSDELDSKMASCSYVAHERLSYAFSVWRMEGAWSMSASH

Variants of: B1
Conditions: with itf2_human TCF4, P15884
Sequence of itf2_human TCF4, P15884 (P15884 whole entry): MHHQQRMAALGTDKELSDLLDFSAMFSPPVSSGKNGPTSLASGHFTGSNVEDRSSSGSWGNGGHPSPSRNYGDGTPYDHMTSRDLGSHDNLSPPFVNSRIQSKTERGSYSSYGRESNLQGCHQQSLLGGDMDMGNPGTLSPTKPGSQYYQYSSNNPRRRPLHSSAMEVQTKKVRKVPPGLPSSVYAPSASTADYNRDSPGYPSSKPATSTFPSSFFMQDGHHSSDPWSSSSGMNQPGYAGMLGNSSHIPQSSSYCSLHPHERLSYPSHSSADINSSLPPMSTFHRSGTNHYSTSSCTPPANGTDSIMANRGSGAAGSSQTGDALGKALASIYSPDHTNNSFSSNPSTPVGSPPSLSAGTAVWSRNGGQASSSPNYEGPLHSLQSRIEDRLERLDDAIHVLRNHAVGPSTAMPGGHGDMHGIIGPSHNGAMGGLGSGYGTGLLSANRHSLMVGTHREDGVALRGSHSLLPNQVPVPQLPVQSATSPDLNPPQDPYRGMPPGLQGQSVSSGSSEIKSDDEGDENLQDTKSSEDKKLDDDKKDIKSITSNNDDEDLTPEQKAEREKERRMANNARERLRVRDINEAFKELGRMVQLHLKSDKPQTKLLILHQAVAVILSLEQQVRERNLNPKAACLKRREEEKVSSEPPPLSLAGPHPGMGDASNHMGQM

effect of a mutation on the interaction	Variant
with no effect	K73R
with no effect	K38R
with no effect	K77R
